Measured values published in the RNAGym collection of RNA variant scans (doi:10.7554/elife.80360).

B1: HDV Ribozyme (parent)
chain: GGCCGGCAUGGUCCCAGCCUCCUCGCUGGCGCCGGCUGGGCAACAUUCCGAGGGGACCGUCCCCUCGGUAAUGGCGAAUGGGACCCA

Variants of: B1
Experiment: self-cleavage, relative activity (ratio to wild type); higher = more cleavage; co-transcriptional

Row | Variant | self-cleavage
1 | U20C G80U | 0.0625
2 | U20C G29U | 0.0519
3 | U20C C86A | 0.158
4 | U20G G40C | 0.0462
5 | U20G G40U | 0.131
6 | U20C G59A | 0.208
7 | U20C U69G | 0.0639
8 | U20C U23A | 0.115
9 | C21A C48A | 0.157
10 | U20G G52U | 0.332
11 | U20C G54C | 0.0475
12 | C21A U72A | 0
13 | U20G A43G | 0.104
14 | C21A C58G | 0.128
15 | C21A C61G | 0.0997
16 | U20C C26G | 0.0923
17 | U20C U47G | 0
18 | C21A G34C | 0
19 | U20C C22A | 0.119
20 | U20C C22G | 0.0554
21 | U20G G81C | 0.095
22 | U20G G74C | 0.0489
23 | U20G C26U | 0.256
24 | U20G G29C | 0

Row | Variant | self-cleavage
25 | U20G G29U | 0
26 | U20C G55C | 0.0791
27 | U20G U47A | 0.0831
28 | U20C G35U | 0.0978
29 | U20G A42C | 0.0875
30 | U20C G52U | 0.145
31 | U20G G68A | 0.0378
32 | C21A A70C | 0.0426
33 | U20C C21G | 0
34 | U20C C44A | 0
35 | C21A U37G | 0.208
36 | C21A U69A | 0.175
37 | C21A G52A | 0.132
38 | C21A G35U | 0.0744
39 | C21A A87U | 0.0915
40 | C21A A87G | 0.0496
41 | C21A G28U | 0.196
42 | C21A U23A | 0.0369
43 | C21G C30A | 0
44 | C21G C32U | 0.128
45 | U20C C66A | 0.135
46 | U20C C66U | 0.0831
47 | U20G C36A | 0
48 | U20C C62G | 0.0665

Row | Variant | self-cleavage
49 | U20G C66A | 0.249
50 | U20G C30A | 0.0378
51 | U20C A87G | 0.282
52 | U20C A51G | 0
53 | U20G G25A | 0
54 | U20G G80U | 0.053
55 | U20G G80A | 0.0831
56 | U20C C58A | 0.0875
57 | U20G G82C | 0.246
58 | U20C G74C | 0.107
59 | U20C C36G | 0.111
60 | U20G A56U | 0.178
61 | U20G C61U | 0.131
62 | C21A C36U | 0.0339
63 | C21A C36G | 0.0627
64 | C21A C85G | 0
65 | C21A C85U | 0.157
66 | C21A C85A | 0
67 | U20G U65G | 0.437
68 | U20C U79C | 0.0845
69 | U20G A78G | 0
70 | C21A A43U | 0.0944
71 | U20G C86U | 0.214
72 | C21A U46A | 0.322

Row | Variant | self-cleavage
73 | U20C U60G | 0.199
74 | C21A A45G | 0.0615
75 | C21A A45C | 0.0652
76 | C21A G38C | 0.185
77 | U20C C24G | 0.115
78 | U20C C30G | 0.447
79 | C21A G50C | 0.0639
80 | C21A G50U | 0.0332
81 | U20G C84G | 0.119
82 | C21A C33A | 0.026
83 | C21A C33U | 0.0723
84 | U20C G28A | 0.147
85 | U20C G28U | 0.119
86 | C21A C22U | 0.138
87 | U20C G25A | 0.458
88 | C21A G54C | 0.0804
89 | C21A C84G | 0.0314
90 | C21A G74C | 0.126
91 | C21A G74U | 0.0712
92 | U20C C64U | 0.244
93 | U20G C58G | 0.266
94 | U20G C58U | 0.237
95 | U20G A70G | 0.312
96 | U20G A70U | 0.196

Row | Variant | self-cleavage
97 | U20C C63A | 0.0898
98 | U20G A51U | 0.332
99 | U20C G34U | 0.086
100 | U20G G50A | 0.151
101 | U20G C63G | 0.104
102 | C21G A83G | 0.0987
103 | U20G U46C | 0.185
104 | U20C U72C | 0.0755
105 | U20C U72A | 0.123
106 | C21A C44U | 0.0346
107 | U20G C33U | 0.0852
108 | C21A G59U | 0.0545
109 | C21A G59A | 0.0936
110 | C21A A77U | 0
111 | C21A A77C | 0
112 | C21G A70G | 0.185
113 | C21G A70C | 0.225
114 | C21A A42U | 0.208
115 | C21A U79C | 0.111
116 | C21G A77U | 0.0426
117 | C21A G53A | 0.0791
118 | U20G G35U | 0
119 | U20G G35A | 0.107
120 | U20C G31U | 0.141

Row | Variant | self-cleavage
121 | U20C C57G | 0.0723
122 | U20G U60G | 0.0831
123 | U20G U72C | 0
124 | U20C A45U | 0.166
125 | C21A A78G | 0.189
126 | C21A A78U | 0.0573
127 | C21A A78C | 0
128 | C21A G80C | 0.0496
129 | U20C G67U | 0.175
130 | C21A C75G | 0.0346
131 | C21A G25A | 0.116
132 | C21A G25C | 0
133 | C21A G55C | 0.13
134 | C21A C26U | 0
135 | U20G A87U | 0.158
136 | U20G C62U | 0.19
137 | U20G C62A | 0.312
138 | U20G A45C | 0.158
139 | C21A G81U | 0.0665
140 | U20G U37C | 0.237
141 | C21A G67A | 0.0712
142 | C21A C57A | 0.102
143 | C21G A78U | 0.196
144 | C21A A83U | 0.0739

Row | Variant | self-cleavage
145 | U20G G53A | 0.148
146 | C21A A71C | 0.0692
147 | U20C U37C | 0.252
148 | U20G C49G | 0.361
149 | U20G C49U | 0.185
150 | U20G C49A | 0.308
151 | C21A G40C | 0.111
152 | U20C C84G | 0.0978
153 | U20C C84A | 0.166
154 | C21A C41U | 0.181
155 | C21A C41G | 0
156 | U20G A71C | 0
157 | U20G A71G | 0.196
158 | U20C A70G | 0.107
159 | U20C A70U | 0.0594
160 | U20G U23C | 0
161 | U20G U23A | 0
162 | U20C G39A | 0
163 | C21G A45G | 0.185
164 | C21A U27C | 0.0519
165 | C21A U27A | 0.0504
166 | C21A G39U | 0.945
167 | C21G A42C | 0.166
